This is an account of results in US20250295734A1, “ANTICOAGULANT PROTEINS AND THEIR USE FOR TREATING DISEASES ASSOCIATED WITH THE ACTIVATION OF NEUTROPHILS” (BIOXODES, priority 2018, published 2025).

“Also recorded” adds a separate entry of the source.

The test system of data set [1] is neutrophil elastase activity. The data set can be described thus: Laser-induced vessel wall injury: neutrophil elastase activity. The data set is classed as in vivo, mice (C57BL/6JRj). The note with it: iv bolus 20.5 mg/kg + infusion 3.7 mg/kg/h. As for the experimental part:
(§1) Ir-CPI was administered intravenously as a bolus (20.5 mg/kg) immediately followed by a continuous infusion at a rate of 3.7 mg/kg/h (see Table 1 below). Due to fast distribution and elimination of Ir-CPI in the mice (t1/2α=14 min and t1/2β=236 min), the combination of the bolus and the infusion was chosen in order to maintain a constant Ir-CPI concentration into the blood.
(§2) Vessel wall injury was induced with a Micropoint Laser System (Photonics Instruments) focused through the microscope objective, parfocal with the focal plane and aimed at the vessel wall, as previously described (Dubois et al., 2006). Typically, 1 or 2 pulses were required to induce vessel wall injury.
(§3) Multiple thrombi were studied in a single mouse, with new thrombi formed upstream of earlier thrombi to avoid any contribution from thrombi generated earlier in the animal under study. Laser-beam injuries were done at various time after the start of test-item administration (+5 min up to about 150 min after bolus administration of Ir-CPI or NaCl (control)).
Image analysis was performed using Slidebook 4.1 (Intelligent Imaging Innovations). Fluorescence data were captured digitally at up to 50 frames per second and analyzed as previously described (Falati et al., 2002). The kinetics of thrombus formation were analyzed by determining median fluorescence values over time in a minimum number of 20 thrombi. […]

The test system of data set [2] is neutrophils isolated from bone marrow of femurs of mice. Put plainly: Neutrophil activation following incubation with ATP (flow cytometry). It is filed as cell-based, mice (C57BL/6). As for the experimental part:
Neutrophils were isolated from the bone marrow of femurs of mice (C57BL/6) as previously described (Hu 2012), using FR-1-coupled magnetic beads (anti-Ly6G Microbead Kit, Miltenyi Biotec). For activation with TFNα, cells were harvested, centrifugated and incubated during 30 min with or without 2 ng/ml of TNFα in Hanks solution (Gibco). Next, neutrophils were incubated with Ir-CPI (0.65 or 2 μM) in Hanks solution (1 h at 37° C.). For activation with ATP, cells were harvested, centrifugated and incubated with ATP 10 μM and Ir-CPI (0.65 or 2 μM) in Hanks solution (1 h at 37° C.). After washing of cells, expression of CD11b, activated CD11b or Ly6G was assessed by flow cytometry (Beckman Coulter Gallios). Antibodies used for neutrophil identification and activation analyses were IRR IgG1-FITC (irrelevant antibody), anti-CD45-APC, anti-Ly6G-PE and anti-CD11b-FITC or Alexa Fluor 647 anti-activated CD11b-. Analysis of results was performed using the Kaluza software (Beckman Coulter).
Percentage of activation marker expression was presented as mean±SEM (n=3independent experiments for TNFα activation and n=2 independent experiments for ATP activation). For experiments with TNFα activation, a one-way ANOVA followed by a
Neutrophils isolated from bone marrow of femurs of mice were submitted to different in vitro experimental conditions (untreated control or incubation with Ir-CPI, and with or without ATP) to assess the effect of Ir-CPI on their activation status. The activation status was assessed by analyzing the percentage of CD11b, activated CD11b and Ly6G expressions at the surface of neutrophils (FIG. 17).
In general terms: Flow cytometry measures light scatter and fluorescence of single cells or particles in a stream.

Data set [3] has as its system polymorphonuclear neutrophils (PMNs). The data set can be described thus: Laser-induced vessel wall injury: PMN accumulation (anti-Ly6G). It is filed as in vivo, mice (C57BL/6JRj). Conditions: iv bolus 20.5 mg/kg + infusion 3.7 mg/kg/h. Here is the method: as §1, §2, §3
Image analysis was performed using Slidebook 4.1 (Intelligent Imaging Innovations). Fluorescence data were captured digitally at up to 50 frames per second and analyzed as previously described (Falati et al., 2002). The kinetics of thrombus formation were analyzed by determining median fluorescence values over time in a minimum number of 20 thrombi.
Detection of PMNs in vivo was performed using PE-labelled anti-Ly6G antibody.
To determine whether Ir-CPI has an impact on the accumulation of PMNs at the site of injury, the accumulation of PMNs on the injured vessel wall was monitored using a PE-fluorescently labeled antibody directed against Ly6G (FIG. 5).

Another data set deals with human neutrophils. The data set can be described thus: Apoptosis/necrosis assay (Annexin V / Propidium Iodide). The data set is classed as cell-based. The note with it: recombinant Ir-CPI 15.3 μg/mL (2 μM); 1 h incubation; 4 donors. Here is the method: The effect of recombinant Ir-CPI on apoptosis/necrosis of human neutrophils was assessed. For this purpose, freshly isolated neutrophils from 4 donors were pre-treated for 1 h with recombinant Ir-CPI at 15.3 μg/mL and then incubated with Annexin V-FITC, with Propidium Iodide (PI) and with anti-human CD66b-PE antibody for cell identification. As negative control, neutrophils were only incubated with Annexin V-PI and CD66b for cell identification.
Polymorphonuclear neutrophils (PMNs) were isolated with StraightFrom® Whole Blood CD15 MicroBeads kits from Miltenyi Biotech. Briefly, after erythrocytes lysis, the blood cells were incubated in the presence of CD15 microbeads. Blood cells were washed with separation buffer and centrifuged at 300 g for 10 min at room temperature. The pellets containing magnetically labeled cells were resuspended in separation buffer and applied to the equilibrated whole blood column placed on the QuadroMACS. After extensive washing, the column was removed from the magnetic separator, and labeled cells were eluted using whole blood elution buffer. Finally, the PMNs were centrifuged at 300 g for 10 min and resuspended in Hank's buffer with calcium and magnesium. […]
Apoptosis was detected by initially staining the cells with Annexin V and Propidium Iodide solution followed by flow cytometry analysis. […]

The next data set concerns the target FXIa (Homo sapiens, UniProt P03951). The note with it: aPTT-based test, FXI deficient plasma; cited from earlier work.
The next data set addresses FXI (Homo sapiens, UniProt P03951). Conditions: cited from earlier work.
For a further data set, the target named is thrombin (Homo sapiens, UniProt P00734). Conditions: cited from earlier work.

B1: Ir-CPI: Ixodes ricinus salivary gland polypeptide, contact phase inhibitor, MW=7660 Da; sequence SEQ ID NO: 1 or SEQ ID NO: 2 (protein)
chain: ANHKGRGRPAKCKLPPDDGPCRARIPSYYFDRKTKTCKEFMYGGCEGNENNFENITTCQEECRAKKV
In the case of B1, in data set [1], the “signal corresponding to neutrophil elastase activity compared to control mice” value was “drastically reduced”. In data set [2] (ATP 10 μM, Ir-CPI 0.65 or 2 μM (FIG. 17A)), the “expression of Ly6G at the surface of neutrophils” value is “decreased”. The “expression of activated CD11b at the surface of neutrophils” value in data set [2] (ATP 10 μM, Ir-CPI 0.65 or 2 μM (FIG. 17C)) was “significantly decreased”. Besides, in data set [2] (ATP experiment (FIG. 17B), Ir-CPI 0.65 and 2 μM), the “expression of CD11b” value is on record as “no effect”. For the same molecule, in data set [3] (at T 261 sec), the “maximal median of integrated PMN fluorescence (anti-Ly6G)” value is recorded as 3.02×10^6 AU. Also, the “median of integrated PMN fluorescence” value in data set [3] (at T 270 sec (end of measurement)) is listed as 2.78×10^6 AU. In addition, the “PMN accumulation compared to control mice” value in data set [3] (first 4.5 min after laser injury) is recorded as “drastically decreased”. Further, in the data set on human neutrophils, the induction of apoptosis result is given as “did not induce apoptosis”; the “mean necrotic, dead, apoptotic, and live cells vs negative control” value is “no statistical difference”. For the same molecule, the FXIa clotting activity entry with FXIa is “inhibits”. Further, the “binding to FXI zymogen” value in the data set with FXI is reported as “but not to their zymogen forms; also recorded: unable to bind”. For the same molecule, in the data set with thrombin, the activity on thrombin entry was “totally inactive”.
